# Measured values reported in patent US8367612B2, “Compositions containing, methods involving, and uses of non-natural amino acids and polypeptides” (Ambrx, Inc., priority 2004, dated 2013).
# Assay: Pharmacokinetic studies, single s.c. dose in rats, plasma concentration by growth hormone ELISA
# Type: in vivo
# Conditions: single-dose 1 mg/kg bolus s.c., normal male Sprague-Dawley rats; average
# Description: Pharmacokinetic properties of PEG-modified growth hormone compounds were compared to each other and to nonPEGylated growth hormone in male Sprague-Dawley rats (261-425 g) obtained from Charles River Laboratories. Catheters were surgically installed into the carotid artery for blood collection. Following successful catheter installation, animals were assigned to treatment groups (three to six per group) prior to dosing. Animals were dosed subcutaneously with 1 mg/kg of compound in a dose volume of 0.41-0.55 ml/kg. Blood samples were collected at various time points via the indwelling catheter and into EDTA-coated microfuge tubes. Plasma was collected after centrifugation, and stored at −80° C. until analysis. Compound concentrations were measured using antibody sandwich growth hormone ELISA kits from either BioSource International (Camarillo, Calif.) or Diagnostic Systems Laboratories (Webster, Tex.). Concentrations were calculated using standards corresponding to the analog that was dosed. Pharmacokinetic parameters were estimated using the modeling program WinNonlin (Pharsight, version 4.1). Noncompartmental analysis with linear-up/log-down trapezoidal integration was used, and concentration data was uniformly weighted.
# Plasma concentrations were obtained at regular intervals following a single subcutaneous dose in rats. […] Plasma samples were taken over the regular time intervals and assayed for injected compound as described. […] Concentration vs time curves were evaluated by noncompartmental analysis (Pharsight, version 4.1). Values shown are averages (+/− standard deviation). Cmax: maximum concentration; terminal t1/2: terminal half-life; AUC0→inf: area under the concentration-time curve extrapolated to infinity; MRT: mean residence time; Cl/f: apparent total, plasma clearance; Vz/f: apparent volume of distribution during terminal phase.
Substance,AUC 0->inf,Cl/f [mL/min/kg],Cmax,MRT [h],Terminal t1/2 [h]
"30KPEG-pAF35(his)hGH: ""hGH polypeptides comprising p-acetyl-phenylalanine covalently-linked to 30 kDa PEG at positions 35 and 92"" (position 35, His-tagged)","39,918 ng × hr/ml",0.583,"1,885 ng/ml",19.16,4.85
"30KPEG-pAF131(his)hGH: ""His-tagged hGH polypeptide comprising non-natural amino acid p-acetyl-phenylalanine covalently linked to 30 kDa PEG at each of six different positions""","6,978 ng × hr/ml",2.68,497 ng/mL,14.28,4.41
"30KPEG-pAF134(his)hGH: ""His-tagged hGH polypeptide comprising non-natural amino acid p-acetyl-phenylalanine covalently linked to 30 kDa PEG at each of six different positions""","7,304 ng × hr/ml",2.52,566 ng/mL,12.15,4.36
"30KPEG-pAF143(his)hGH: ""His-tagged hGH polypeptide comprising non-natural amino acid p-acetyl-phenylalanine covalently linked to 30 kDa PEG at each of six different positions""","17,494 ng × hr/ml",0.983,803 ng/mL,18.83,6.02
"30KPEG-pAF145(his)hGH: ""His-tagged hGH polypeptide comprising non-natural amino acid p-acetyl-phenylalanine covalently linked to 30 kDa PEG at each of six different positions""","13,162 ng × hr/ml",1.47,634 ng/mL,17.82,5.87
